B1: CPEB3 Ribozyme (parent)
chain: UAACAGGGGGCCACAGCAGAAGCGUUCACGUCGCAGCCCCUGUCAGAUUCUGGUGAAUCUGCGAAUUCUGCUGUAUAUCUC

Variants of: B1
Assay: self-cleavage, relative activity (ratio to wild type); higher = more cleavage; in vitro, sequencing
Outline: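 After error-prone PCR and barcoding, CPEB3 ribozyme mutant libraries were transcribed with T7 RNA polymerase at 37°C for 5 hours, then given 15 min with DNase I before an EDTA stop, and they cleaved during both steps. Reverse transcription with template switching preceded Illumina sequencing. Relative activity divides a variant's cleaved/total read fraction by the unmutated ribozyme's. At least 5 reads were required per variant, and three batches were averaged.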
C39U A45G gave a self-cleavage of 0.69. In the case of C39A C81G, the self-cleavage is reported as 0.16. With C39U A65G the self-cleavage was 0.32. C39G C62U gave a self-cleavage of 0.08. Work on U41A U66A yielded a self-cleavage of 0.27. Variant U41A U66C has a self-cleavage of 0.23. U41A U66G showed a self-cleavage of 0.18. In the case of U41A U69C, the self-cleavage is reported as 0.24. In the case of U41A U69A, the self-cleavage is reported as 0.14. Work on U41A U69G yielded a self-cleavage of 0.33. In the case of C39U U80C, the self-cleavage is reported as 0.8. Work on C40U G42A yielded a self-cleavage of 0.27. In the case of C39U U48C, the self-cleavage is reported as 0.42. U41A U49C gave a self-cleavage of 0.23. Work on U41A U49A yielded a self-cleavage of 0.23. C40U U80A showed a self-cleavage of 0.67. With C40U U80C the self-cleavage was 0.76. In the case of C39A U69G, the self-cleavage is reported as 0.14. For C39A U69A, the self-cleavage was 0.22. C39A U69C showed a self-cleavage of 0.16. Work on C39U U41A yielded a self-cleavage of 0.25. C39U U58C showed a self-cleavage of 0.3. With C39G G70A the self-cleavage was 0.15. Work on C40A A64G yielded a self-cleavage of 0.12. For C40A A56G, the self-cleavage was 0.23. Variant C40A A56U has a self-cleavage of 0.2. C39A A56U gave a self-cleavage of 0.09. In the case of C39A A56G, the self-cleavage is reported as 0.26. Work on C39U C79U yielded a self-cleavage of 1.02. In the case of C40U A64G, the self-cleavage is reported as 0.54. Variant C40U A64U has a self-cleavage of 0.27. For C39U U69A, the self-cleavage was 0.44. With C39U U69C the self-cleavage was 0.32. In the case of C39U U76C, the self-cleavage is reported as 1.08. C39A U60C gave a self-cleavage of 0.13. C39A U60A gave a self-cleavage of 0.18. Work on C39A U60G yielded a self-cleavage of 0.09. Variant C39U A77G has a self-cleavage of 0.83. For C39U A77U, the self-cleavage was 0.81. Work on C39U A64U yielded a self-cleavage of 0.36. Variant C39U C71U has a self-cleavage of 0.57. With C40U G61A the self-cleavage was 0.42. For C40U U66C, the self-cleavage was 0.33. With C40U U66A the self-cleavage was 0.23. C40U G55A showed a self-cleavage of 0.67. C40U G55U showed a self-cleavage of 0.49. Variant C39G U41G has a self-cleavage of 0.13. Variant C39G U41A has a self-cleavage of 0.21. For U41A A45U, the self-cleavage was 0.2. U41A A45G showed a self-cleavage of 0.24. U41A A45C showed a self-cleavage of 0.18. C39G U80A gave a self-cleavage of 0.09. C40G U43C gave a self-cleavage of 0.16. C40A U43C gave a self-cleavage of 0.14. C40A U43A gave a self-cleavage of 0.45. C40U U58C gave a self-cleavage of 0.24. With C40U U58A the self-cleavage was 0.3. Variant C39U U78A has a self-cleavage of 0.89. With C39A C71U the self-cleavage was 0.11. In the case of U41A U43C, the self-cleavage is reported as 0.27. U41A U43A showed a self-cleavage of 0.24. In the case of U41A U43G, the self-cleavage is reported as 0.4. U41A A56G gave a self-cleavage of 0.24. Work on U41A A56U yielded a self-cleavage of 0.29. Work on U41A G42A yielded a self-cleavage of 0.37. U41A G42C showed a self-cleavage of 0.21. In the case of U41A G42U, the self-cleavage is reported as 0.27. Work on C40A A77G yielded a self-cleavage of 0.28. C39U A75G showed a self-cleavage of 0.97. Work on U41A U78A yielded a self-cleavage of 0.25. U41A U78C showed a self-cleavage of 0.26. In the case of C39A U66C, the self-cleavage is reported as 0.39. C40A U78A gave a self-cleavage of 0.22. Work on C40A U78C yielded a self-cleavage of 0.18. Variant C39U has a self-cleavage of 0.91. With C39G the self-cleavage was 0.3. In the case of C40U G53A, the self-cleavage is reported as 0.84. Work on C40A U51G yielded a self-cleavage of 0.25. C40A U51A gave a self-cleavage of 0.33. Variant C39G A45G has a self-cleavage of 0.29. Variant U41A G73U has a self-cleavage of 0.42. In the case of U41A G73A, the self-cleavage is reported as 0.45. Work on U41A G73C yielded a self-cleavage of 0.17. With C39G U72C the self-cleavage was 0.3. Work on C39G U60A yielded a self-cleavage of 0.25. C39U A57G gave a self-cleavage of 0.27. U41A G52A gave a self-cleavage of 0.19. U41A G52C gave a self-cleavage of 0.67. With U41A G52U the self-cleavage was 0.21. With C39A U80A the self-cleavage was 0.3. In the case of C39A U80C, the self-cleavage is reported as 0.26. Work on U41A A57C yielded a self-cleavage of 0.4. With U41A A57U the self-cleavage was 0.13. U41A A57G gave a self-cleavage of 0.25. U41A U58C showed a self-cleavage of 0.23. U41A U58G gave a self-cleavage of 0.23. In the case of U41A U58A, the self-cleavage is reported as 0.22. In the case of C39G A64U, the self-cleavage is reported as 0.35. In the case of C39G A64G, the self-cleavage is reported as 0.38. C39G A64C showed a self-cleavage of 0.17. Work on C40A A45U yielded a self-cleavage of 0.31. With C40A A45G the self-cleavage was 0.26. Variant C40A A45C has a self-cleavage of 0.23. Variant C40A G63A has a self-cleavage of 0.12. Work on C40A U66C yielded a self-cleavage of 0.18. C40A U41C gave a self-cleavage of 0.36. C40A U41A showed a self-cleavage of 0.1. Work on C39U U60C yielded a self-cleavage of 0.39. Work on C39U U60A yielded a self-cleavage of 0.43. C39A A65G gave a self-cleavage of 0.11. Work on U41A A75C yielded a self-cleavage of 0.31. For U41A A75G, the self-cleavage was 0.27. U41A A75U gave a self-cleavage of 0.4. For U41A U48G, the self-cleavage was 0.37. Work on U41A U48C yielded a self-cleavage of 0.23. With U41A U48A the self-cleavage was 0.22. Variant C40U U72A has a self-cleavage of 0.39. For C40U U72G, the self-cleavage was 0.32. C40U U72C showed a self-cleavage of 0.9. Variant U41A C68A has a self-cleavage of 0.17. Work on C40A U74A yielded a self-cleavage of 0.3. Variant U41A A77U has a self-cleavage of 0.31. Variant U41A A77G has a self-cleavage of 0.31. For U41A A77C, the self-cleavage was 0.15. C40A C81G showed a self-cleavage of 0.07. With C39U U43C the self-cleavage was 0.35. In the case of C39U U43A, the self-cleavage is reported as 1.12. U41A G46U gave a self-cleavage of 0.29. Variant U41A G46A has a self-cleavage of 0.3. C40A U72C gave a self-cleavage of 0.37. Variant C40A U72G has a self-cleavage of 0.41. Work on C39A A64G yielded a self-cleavage of 0.05. C39A A64U gave a self-cleavage of 0.22. For C40U C44A, the self-cleavage was 0.52. Work on U41A U54G yielded a self-cleavage of 0.22. U41A U54C gave a self-cleavage of 0.29. With U41A U54A the self-cleavage was 0.27. In the case of U41A U60G, the self-cleavage is reported as 0.23. Variant U41A U60A has a self-cleavage of 0.25. Variant U41A U60C has a self-cleavage of 0.26. C40A U80A showed a self-cleavage of 0.26. With C40A U80C the self-cleavage was 0.24. For C40G U41A, the self-cleavage was 0.26. Work on C40G U41C yielded a self-cleavage of 0.32. Variant C40G U41G has a self-cleavage of 0.6. C40U U51A gave a self-cleavage of 0.84. For C40U U51G, the self-cleavage was 0.49. Work on C40U U51C yielded a self-cleavage of 0.65. C39A U51C showed a self-cleavage of 0.34. In the case of C40U C59U, the self-cleavage is reported as 0.28. In the case of C40A U60G, the self-cleavage is reported as 0.2. C40A U60C showed a self-cleavage of 0.2. For C39A A77G, the self-cleavage was 0.22. Variant C39A A77U has a self-cleavage of 0.32. With C40U C79G the self-cleavage was 1.24. C39A C68G gave a self-cleavage of 0.17. C39A U67C gave a self-cleavage of 0.16. With C39A U67A the self-cleavage was 0.34. Work on U41A C71U yielded a self-cleavage of 0.24. Work on U41A C71G yielded a self-cleavage of 0.1. C39G C50G showed a self-cleavage of 0.1. With C40U C71A the self-cleavage was 0.17. In the case of C40U U69C, the self-cleavage is reported as 0.36. C40U U69G showed a self-cleavage of 0.57. C40U U69A showed a self-cleavage of 0.41. In the case of C40A A65G, the self-cleavage is reported as 0.31. C40U U76C gave a self-cleavage of 0.92.
